Consider 25 molecules from patent US20130210709A1 (ANCHOR THERAPEUTICS, published 2013).

The experiment addresses CXCR4 receptor (human, UniProt P61073 1-352). Description: cell-based or functional assay.

Square brackets hold non-standard residues; d marks the D form. * marks the point of attachment. Palmitoyl = CCCCCCCCCCCCCCCC(=O)* Where only a bound is given, the exact number is not on record here.

Sequence of CXCR4 receptor (P61073 whole entry): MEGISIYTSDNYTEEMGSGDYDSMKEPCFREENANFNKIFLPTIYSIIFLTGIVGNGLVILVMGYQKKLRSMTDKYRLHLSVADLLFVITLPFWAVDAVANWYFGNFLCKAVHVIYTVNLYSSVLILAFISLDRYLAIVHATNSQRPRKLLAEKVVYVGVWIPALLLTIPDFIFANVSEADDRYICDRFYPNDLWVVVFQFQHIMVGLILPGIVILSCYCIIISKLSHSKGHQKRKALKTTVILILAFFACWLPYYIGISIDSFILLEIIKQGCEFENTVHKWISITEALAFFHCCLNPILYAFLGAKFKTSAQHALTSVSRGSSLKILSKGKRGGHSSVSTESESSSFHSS

B1: CXCR4 i1 loop compound 149 (peptide)
peptide: Palmitoyl-MGYQKKLRSMTAKYRL-NH2
SMILES: CCCCCCCCCCCCCCCC(=O)N[C@@H](CCSC)C(=O)NCC(=O)N[C@@H](Cc1ccc(O)cc1)C(=O)N[C@@H](CCC(N)=O)C(=O)N[C@@H](CCCCN)C(=O)N[C@@H](CCCCN)C(=O)N[C@@H](CC(C)C)C(=O)N[C@@H](CCCNC(=N)N)C(=O)N[C@@H](CO)C(=O)N[C@@H](CCSC)C(=O)N[C@H](C(=O)N[C@@H](C)C(=O)N[C@@H](CCCCN)C(=O)N[C@@H](Cc1ccc(O)cc1)C(=O)N[C@@H](CCCNC(=N)N)C(=O)N[C@@H](CC(C)C)C(N)=O)[C@@H](C)O
For B1, the “IC50 (nM), calcium flux, CCRF-CEM” value is 126 nM. Turning to Palmitoyl-MGY[dQ]KKLRSMTDKYRL-NH2 [CXCR4 i1 loop compound 167], the “IC50 (nM), calcium flux, CCRF-CEM” value was 116 nM.

B2: CXCR4 i1 loop compound 150 (peptide)
peptide: Palmitoyl-MGYQKKLRSMTDAYRL-NH2
SMILES: CCCCCCCCCCCCCCCC(=O)N[C@@H](CCSC)C(=O)NCC(=O)N[C@@H](Cc1ccc(O)cc1)C(=O)N[C@@H](CCC(N)=O)C(=O)N[C@@H](CCCCN)C(=O)N[C@@H](CCCCN)C(=O)N[C@@H](CC(C)C)C(=O)N[C@@H](CCCNC(=N)N)C(=O)N[C@@H](CO)C(=O)N[C@@H](CCSC)C(=O)N[C@H](C(=O)N[C@@H](CC(=O)O)C(=O)N[C@@H](C)C(=O)N[C@@H](Cc1ccc(O)cc1)C(=O)N[C@@H](CCCNC(=N)N)C(=O)N[C@@H](CC(C)C)C(N)=O)[C@@H](C)O
For B2, the “IC50 (nM), calcium flux, CCRF-CEM” value was determined as 313 nM.

B3: CXCR4 i1 loop compound 129 (peptide)
peptide: Palmitoyl-AGYQKKLRSMTDKYRL-NH2
SMILES: CCCCCCCCCCCCCCCC(=O)N[C@@H](C)C(=O)NCC(=O)N[C@@H](Cc1ccc(O)cc1)C(=O)N[C@@H](CCC(N)=O)C(=O)N[C@@H](CCCCN)C(=O)N[C@@H](CCCCN)C(=O)N[C@@H](CC(C)C)C(=O)N[C@@H](CCCNC(=N)N)C(=O)N[C@@H](CO)C(=O)N[C@@H](CCSC)C(=O)N[C@H](C(=O)N[C@@H](CC(=O)O)C(=O)N[C@@H](CCCCN)C(=O)N[C@@H](Cc1ccc(O)cc1)C(=O)N[C@@H](CCCNC(=N)N)C(=O)N[C@@H](CC(C)C)C(N)=O)[C@@H](C)O
In the case of B3, the “IC50 (nM), calcium flux, CCRF-CEM” value amounted to 197 nM.

B4: CXCR4 i1 loop compound 131 (peptide)
peptide: Palmitoyl-MGAQKKLRSMTDKYRL-NH2
SMILES: CCCCCCCCCCCCCCCC(=O)N[C@@H](CCSC)C(=O)NCC(=O)N[C@@H](C)C(=O)N[C@@H](CCC(N)=O)C(=O)N[C@@H](CCCCN)C(=O)N[C@@H](CCCCN)C(=O)N[C@@H](CC(C)C)C(=O)N[C@@H](CCCNC(=N)N)C(=O)N[C@@H](CO)C(=O)N[C@@H](CCSC)C(=O)N[C@H](C(=O)N[C@@H](CC(=O)O)C(=O)N[C@@H](CCCCN)C(=O)N[C@@H](Cc1ccc(O)cc1)C(=O)N[C@@H](CCCNC(=N)N)C(=O)N[C@@H](CC(C)C)C(N)=O)[C@@H](C)O
For B4, the “IC50 (nM), calcium flux, CCRF-CEM” value was 147 nM. The figure for Palmitoyl-MGYQ[dK]KLRSMTDKYRL-NH2 [CXCR4 i1 loop compound 168] is 119 nM; for Palmitoyl-MGYQK[dK]LRSMTDKYRL-NH2 [CXCR4 i1 loop compound 169] it is 88 nM.

B5: CXCR4 i1 loop compound 152 (peptide)
peptide: Palmitoyl-MGYQKKLRSMTDKYAL-NH2
SMILES: CCCCCCCCCCCCCCCC(=O)N[C@@H](CCSC)C(=O)NCC(=O)N[C@@H](Cc1ccc(O)cc1)C(=O)N[C@@H](CCC(N)=O)C(=O)N[C@@H](CCCCN)C(=O)N[C@@H](CCCCN)C(=O)N[C@@H](CC(C)C)C(=O)N[C@@H](CCCNC(=N)N)C(=O)N[C@@H](CO)C(=O)N[C@@H](CCSC)C(=O)N[C@H](C(=O)N[C@@H](CC(=O)O)C(=O)N[C@@H](CCCCN)C(=O)N[C@@H](Cc1ccc(O)cc1)C(=O)N[C@@H](C)C(=O)N[C@@H](CC(C)C)C(N)=O)[C@@H](C)O
B5: the “IC50 (nM), calcium flux, CCRF-CEM” value is above 10000 nM.

As for Palmitoyl-MGYQKK[dL]RSMTDKYRL-NH2 [CXCR4 i1 loop compound 170], the “IC50 (nM), calcium flux, CCRF-CEM” value amounted to 72 nM. Next, Palmitoyl-MGYQKKLRSMTDK[dY]RL-NH2 [CXCR4 i1 loop compound 161]: above 10000 nM.

Regarding Palmitoyl-MGYQKKL[dR]SMTDKYRL-NH2 [CXCR4 i1 loop compound 171], the “IC50 (nM), calcium flux, CCRF-CEM” value stood at 72 nM.

B6: CXCR4 i1 loop compound 132 (peptide)
peptide: Palmitoyl-MGYAKKLRSMTDKYRL-NH2
SMILES: CCCCCCCCCCCCCCCC(=O)N[C@@H](CCSC)C(=O)NCC(=O)N[C@@H](Cc1ccc(O)cc1)C(=O)N[C@@H](C)C(=O)N[C@@H](CCCCN)C(=O)N[C@@H](CCCCN)C(=O)N[C@@H](CC(C)C)C(=O)N[C@@H](CCCNC(=N)N)C(=O)N[C@@H](CO)C(=O)N[C@@H](CCSC)C(=O)N[C@H](C(=O)N[C@@H](CC(=O)O)C(=O)N[C@@H](CCCCN)C(=O)N[C@@H](Cc1ccc(O)cc1)C(=O)N[C@@H](CCCNC(=N)N)C(=O)N[C@@H](CC(C)C)C(N)=O)[C@@H](C)O
On to B6, for which the “IC50 (nM), calcium flux, CCRF-CEM” value stood at 213 nM.

B7: CXCR4 i1 loop compound 151 (peptide)
peptide: Palmitoyl-MGYQKKLRSMTDKARL-NH2
SMILES: CCCCCCCCCCCCCCCC(=O)N[C@@H](CCSC)C(=O)NCC(=O)N[C@@H](Cc1ccc(O)cc1)C(=O)N[C@@H](CCC(N)=O)C(=O)N[C@@H](CCCCN)C(=O)N[C@@H](CCCCN)C(=O)N[C@@H](CC(C)C)C(=O)N[C@@H](CCCNC(=N)N)C(=O)N[C@@H](CO)C(=O)N[C@@H](CCSC)C(=O)N[C@H](C(=O)N[C@@H](CC(=O)O)C(=O)N[C@@H](CCCCN)C(=O)N[C@@H](C)C(=O)N[C@@H](CCCNC(=N)N)C(=O)N[C@@H](CC(C)C)C(N)=O)[C@@H](C)O
On to B7, for which the “IC50 (nM), calcium flux, CCRF-CEM” value is above 10000 nM.

B8: CXCR4 i1 loop compound 133 (peptide)
peptide: Palmitoyl-MGYQAKLRSMTDKYRL-NH2
SMILES: CCCCCCCCCCCCCCCC(=O)N[C@@H](CCSC)C(=O)NCC(=O)N[C@@H](Cc1ccc(O)cc1)C(=O)N[C@@H](CCC(N)=O)C(=O)N[C@@H](C)C(=O)N[C@@H](CCCCN)C(=O)N[C@@H](CC(C)C)C(=O)N[C@@H](CCCNC(=N)N)C(=O)N[C@@H](CO)C(=O)N[C@@H](CCSC)C(=O)N[C@H](C(=O)N[C@@H](CC(=O)O)C(=O)N[C@@H](CCCCN)C(=O)N[C@@H](Cc1ccc(O)cc1)C(=O)N[C@@H](CCCNC(=N)N)C(=O)N[C@@H](CC(C)C)C(N)=O)[C@@H](C)O
Turning to B8, the “IC50 (nM), calcium flux, CCRF-CEM” value turned out to be 200 nM.

Turning to Palmitoyl-MGYQKKLRSMT[dD]KYRL-NH2 [CXCR4 i1 loop compound 163], the “IC50 (nM), calcium flux, CCRF-CEM” value was determined as 623 nM. Next, Palmitoyl-MGYQKKLRSM[dT]DKYRL-NH2 [CXCR4 i1 loop compound 164]: 322 nM.

B9: CXCR4 i1 loop compound 153 (peptide)
peptide: Palmitoyl-MGYQKKLRSMTDKYRA-NH2
SMILES: CCCCCCCCCCCCCCCC(=O)N[C@@H](CCSC)C(=O)NCC(=O)N[C@@H](Cc1ccc(O)cc1)C(=O)N[C@@H](CCC(N)=O)C(=O)N[C@@H](CCCCN)C(=O)N[C@@H](CCCCN)C(=O)N[C@@H](CC(C)C)C(=O)N[C@@H](CCCNC(=N)N)C(=O)N[C@@H](CO)C(=O)N[C@@H](CCSC)C(=O)N[C@H](C(=O)N[C@@H](CC(=O)O)C(=O)N[C@@H](CCCCN)C(=O)N[C@@H](Cc1ccc(O)cc1)C(=O)N[C@@H](CCCNC(=N)N)C(=O)N[C@@H](C)C(N)=O)[C@@H](C)O
Consider B9, for which the “IC50 (nM), calcium flux, CCRF-CEM” value is above 10000 nM. Next, Palmitoyl-MGYQKKLRSMTDKYR[dL]-NH2 [CXCR4 i1 loop compound 159]: above 10000 nM.

B10: CXCR4 i1 loop compound 130 (peptide)
peptide: Palmitoyl-MAYQKKLRSMTDKYRL-NH2
SMILES: CCCCCCCCCCCCCCCC(=O)N[C@@H](CCSC)C(=O)N[C@@H](C)C(=O)N[C@@H](Cc1ccc(O)cc1)C(=O)N[C@@H](CCC(N)=O)C(=O)N[C@@H](CCCCN)C(=O)N[C@@H](CCCCN)C(=O)N[C@@H](CC(C)C)C(=O)N[C@@H](CCCNC(=N)N)C(=O)N[C@@H](CO)C(=O)N[C@@H](CCSC)C(=O)N[C@H](C(=O)N[C@@H](CC(=O)O)C(=O)N[C@@H](CCCCN)C(=O)N[C@@H](Cc1ccc(O)cc1)C(=O)N[C@@H](CCCNC(=N)N)C(=O)N[C@@H](CC(C)C)C(N)=O)[C@@H](C)O
With B10, the “IC50 (nM), calcium flux, CCRF-CEM” value is 125 nM. Palmitoyl-MGYQKKLRSMTDKY[dR]L-NH2 [CXCR4 i1 loop compound 160]: the “IC50 (nM), calcium flux, CCRF-CEM” value was determined as 5730 nM. As for Palmitoyl-MGYQKKLRSMTD[dK]YRL-NH2 [CXCR4 i1 loop compound 162], the “IC50 (nM), calcium flux, CCRF-CEM” value was determined as 291 nM. Next, Palmitoyl-MG[dY]QKKLRSMTDKYRL-NH2 [CXCR4 i1 loop compound 166]: 129 nM. Next, Palmitoyl-[dM]GYQKKLRSMTDKYRL-NH2 [CXCR4 i1 loop compound 165]: 112 nM.

As for Palmitoyl-MGYQKKLR[dS]MTDKYRL-NH2 [CXCR4 i1 loop compound 172], the “IC50 (nM), calcium flux, CCRF-CEM” value is 90 nM. As to Palmitoyl-MGYQKKLRS[dM]TDKYRL-NH2 [CXCR4 i1 loop compound 173], the “IC50 (nM), calcium flux, CCRF-CEM” value came out at 97 nM.
